IC50 data for 23 sequences are collected here from the Immune Epitope Database (IEDB).

Some results are limits rather than exact numbers.

Assay [1] concerns the target HLA-A*02:03. Kind of assay: IEDB peptide-MHC binding, purified MHC/competitive/radioactivity; ≥ and ≤ were set here for values at or beyond the usual limits of such assays.
For assay [2], the target named is HLA-A*02:01. The assay is described as above.
Assay [3] concerns the target HLA-A*02:02. The assay is described as above.
Assay [4] has as its target HLA-A*02:06. Described as above.
Assay [5] concerns the target HLA-A*68:02. Kind of assay: IEDB peptide-MHC binding, cellular MHC/competitive/fluorescence; ≥ and ≤ were set here for values at or beyond the usual limits of such assays.
Where [6] appears, read: source organism: Vaccinia virus WR.
Setting [7] is: source organism: Hepacivirus hominis.
Where [8] appears, read: source organism: Mammarenavirus machupoense.

Turning to KIILFQNNDI, the IC50 in assay [1] (setting [6]) was found to be 2000 nM; in assay [2] (setting [6]), 3660 nM; in assay [3] (setting [6]) it was 1610 nM; in assay [4] (setting [6]), 2170 nM; in assay [5] (setting [6]), 17200 nM.

In the case of KILSDENYL, the IC50 in assay [1] (setting [6]) came to 1170 nM; in assay [2] (setting [6]), 121 nM; in assay [3] (setting [6]) it was 196 nM; in assay [4] (setting [6]), 28 nM; in assay [5] (setting [6]), 46600 nM.

KILSDENYLL: the IC50 in assay [1] (setting [6]) was 3770 nM; in assay [2] (setting [6]), 15 nM; in assay [3] (setting [6]) it was 25 nM; in assay [4] (setting [6]) it was 16 nM; in assay [5] (setting [6]), at least 70000 nM.

As for KINEMVDEL, the IC50 came out at 76 nM in assay [1] (setting [6]); 291 nM in assay [2] (setting [6]); 1.4 nM in assay [3] (setting [6]); 317 nM in assay [4] (setting [6]); 48400 nM in assay [5] (setting [6]).

For KINPLLDEPL, the IC50 in assay [1] (setting [6]) stood at 304 nM; in assay [2] (setting [6]) it was 1470 nM; in assay [3] (setting [6]), 53 nM; in assay [4] (setting [6]), 19 nM; in assay [5] (setting [6]) it was 10100 nM.

With KIVQLPKRGV, the IC50 in assay [1] (setting [6]) was 51 nM; in assay [2] (setting [6]), 2240 nM; in assay [3] (setting [6]), 4120 nM; in assay [4] (setting [6]) it was 2250 nM; in assay [5] (setting [6]), 62600 nM.

As to KLFPRLPGI, the IC50 in assay [1] (setting [7]) is 0.5 nM; in assay [2] (setting [7]) it was 1.3 nM; in assay [3] (setting [7]), 8.3 nM; in assay [4] (setting [7]) it was 2.2 nM; in assay [5] (setting [7]), 40200 nM.

In the case of KLFTIAMWLL, the IC50 in assay [1] (source organism: SARS-CoV1) came out at 709 nM; in assay [2] (source organism: SARS-CoV1) it was 30 nM; in assay [3] (source organism: SARS-CoV1), 8.5 nM; in assay [4] (source organism: SARS-CoV1), 262 nM; in assay [5] (source organism: SARS-CoV1), 9420 nM.

Turning to KLLIVLTCI, the IC50 worked out at 1940 nM in assay [1] (source organism: SARS-CoV1); 229 nM in assay [2] (source organism: SARS-CoV1); 260 nM in assay [3] (source organism: SARS-CoV1); 449 nM in assay [4] (source organism: SARS-CoV1); 5470 nM in assay [5] (source organism: SARS-CoV1).

For the sequence KLLNMRDLI, the IC50 stood at 329 nM in assay [1] (setting [6]); 18 nM in assay [2] (setting [6]); 496 nM in assay [3] (setting [6]); 44 nM in assay [4] (setting [6]); 30200 nM in assay [5] (setting [6]).

Turning to KLLNMRDLIV, the IC50 in assay [1] (setting [6]) was 29 nM; in assay [2] (setting [6]), 1.1 nM; in assay [3] (setting [6]) it was 194 nM; in assay [4] (setting [6]), 2.8 nM; in assay [5] (setting [6]) it was at least 70000 nM.

Consider KLLPQLPGV, for which the IC50 is 5.2 nM in assay [1] (setting [7]); 1.7 nM in assay [2] (setting [7]); 51 nM in assay [3] (setting [7]); 1.7 nM in assay [4] (setting [7]); 42400 nM in assay [5] (setting [7]).

Consider KLLSTSNVIT, for which the IC50 was 3350 nM in assay [1] (setting [6]); 1120 nM in assay [2] (setting [6]); 2260 nM in assay [3] (setting [6]); 1550 nM in assay [4] (setting [6]); at least 70000 nM in assay [5] (setting [6]).

As for KLPTWLGAA, the 50% inhibitory concentration (IC50) in assay [1] (setting [6]) was 8 nM; in assay [2] (setting [6]), 207 nM; in assay [3] (setting [6]), 499 nM; in assay [4] (setting [6]), 9.4 nM; in assay [5] (setting [6]), at least 70000 nM.

In the case of KLPTWLGAAI, the IC50 in assay [1] (setting [6]) was determined as 123 nM; in assay [2] (setting [6]), 226 nM; in assay [3] (setting [6]), 103 nM; in assay [4] (setting [6]), 295 nM; in assay [5] (setting [6]) it was 6370 nM.

Take KLWAQCVQL: the IC50 was found to be 194 nM in assay [1] (source organism: SARS-CoV1); 4.7 nM in assay [2] (source organism: SARS-CoV1); 13 nM in assay [3] (source organism: SARS-CoV1); 9.5 nM in assay [4] (source organism: SARS-CoV1); 23100 nM in assay [5] (source organism: SARS-CoV1).

Take KLYGYASLT: the IC50 worked out at 22 nM in assay [1] (setting [6]); 326 nM in assay [2] (setting [6]); 76 nM in assay [3] (setting [6]); 1990 nM in assay [4] (setting [6]); 11000 nM in assay [5] (setting [6]).

For KTIISEEYL, the IC50 is 1220 nM in assay [1] (setting [6]); 694 nM in assay [2] (setting [6]); 916 nM in assay [3] (setting [6]); 150 nM in assay [4] (setting [6]); 10900 nM in assay [5] (setting [6]).

In the case of LAELLEMKYA, the IC50 in assay [1] (setting [6]) was 1040 nM; in assay [2] (setting [6]), 2510 nM; in assay [3] (setting [6]), 999 nM; in assay [4] (setting [6]), 2450 nM; in assay [5] (setting [6]) it was 23300 nM.

As to LALTDVEKRI, the IC50 in assay [1] (setting [6]) turned out to be 403 nM; in assay [2] (setting [6]), 1420 nM; in assay [3] (setting [6]) it was 199 nM; in assay [4] (setting [6]), 2410 nM; in assay [5] (setting [6]), 14900 nM.

Turning to LILSNKLLYA, the IC50 was 122 nM in assay [1] (setting [6]); 169 nM in assay [2] (setting [6]); 468 nM in assay [3] (setting [6]); 36 nM in assay [4] (setting [6]); 9790 nM in assay [5] (setting [6]).

Consider LIYRQLTSNV, for which the half-inhibitory concentration (IC50) in assay [1] (setting [6]) stood at 7.5 nM; in assay [2] (setting [6]), 663 nM; in assay [3] (setting [6]), 79 nM; in assay [4] (setting [6]), 169 nM; in assay [5] (setting [6]), 6390 nM.

Consider LLDCIMYQS, for which the IC50 in assay [1] (setting [8]) turned out to be 2270 nM; in assay [2] (setting [8]), 1100 nM; in assay [3] (setting [8]), 1540 nM; in assay [4] (setting [8]), 3280 nM; in assay [5] (setting [8]), 11300 nM.

As usually defined, the IC50 is the concentration at which inhibition is half-maximal.
